Assay results: paper PMC3299985 (Structure(London, England:1993), 2012)

T1: Orc1 (subunit of the purified ORC) (S. cerevisiae, UniProt P54784 1-914)
T1 sequence (looked up): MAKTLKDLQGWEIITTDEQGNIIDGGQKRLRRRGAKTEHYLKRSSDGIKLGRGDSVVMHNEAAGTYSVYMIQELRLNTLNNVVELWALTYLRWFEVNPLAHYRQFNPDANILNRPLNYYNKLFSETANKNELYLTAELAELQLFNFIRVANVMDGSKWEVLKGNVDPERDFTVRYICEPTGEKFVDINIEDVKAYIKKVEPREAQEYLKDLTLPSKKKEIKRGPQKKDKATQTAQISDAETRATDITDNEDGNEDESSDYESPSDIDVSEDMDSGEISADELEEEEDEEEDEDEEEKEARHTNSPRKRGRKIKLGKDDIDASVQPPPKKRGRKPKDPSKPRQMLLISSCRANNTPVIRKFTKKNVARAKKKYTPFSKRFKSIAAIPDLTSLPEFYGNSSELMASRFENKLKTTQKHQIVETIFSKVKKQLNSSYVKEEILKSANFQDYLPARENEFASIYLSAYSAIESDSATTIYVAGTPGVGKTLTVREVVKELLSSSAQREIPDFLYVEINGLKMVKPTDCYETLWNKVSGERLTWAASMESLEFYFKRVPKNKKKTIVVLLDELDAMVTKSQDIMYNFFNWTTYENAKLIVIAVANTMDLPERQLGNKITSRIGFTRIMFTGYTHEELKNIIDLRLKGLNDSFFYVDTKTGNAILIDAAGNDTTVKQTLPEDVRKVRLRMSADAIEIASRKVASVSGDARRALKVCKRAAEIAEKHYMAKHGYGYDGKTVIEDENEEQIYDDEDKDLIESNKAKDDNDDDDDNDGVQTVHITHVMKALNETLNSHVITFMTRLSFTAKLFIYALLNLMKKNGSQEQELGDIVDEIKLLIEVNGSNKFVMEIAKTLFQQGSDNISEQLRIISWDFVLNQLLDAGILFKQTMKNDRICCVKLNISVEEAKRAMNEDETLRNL

T2: Orc2 (subunit of the purified ORC) (S. cerevisiae, UniProt P32833 1-620)
T2 sequence (looked up): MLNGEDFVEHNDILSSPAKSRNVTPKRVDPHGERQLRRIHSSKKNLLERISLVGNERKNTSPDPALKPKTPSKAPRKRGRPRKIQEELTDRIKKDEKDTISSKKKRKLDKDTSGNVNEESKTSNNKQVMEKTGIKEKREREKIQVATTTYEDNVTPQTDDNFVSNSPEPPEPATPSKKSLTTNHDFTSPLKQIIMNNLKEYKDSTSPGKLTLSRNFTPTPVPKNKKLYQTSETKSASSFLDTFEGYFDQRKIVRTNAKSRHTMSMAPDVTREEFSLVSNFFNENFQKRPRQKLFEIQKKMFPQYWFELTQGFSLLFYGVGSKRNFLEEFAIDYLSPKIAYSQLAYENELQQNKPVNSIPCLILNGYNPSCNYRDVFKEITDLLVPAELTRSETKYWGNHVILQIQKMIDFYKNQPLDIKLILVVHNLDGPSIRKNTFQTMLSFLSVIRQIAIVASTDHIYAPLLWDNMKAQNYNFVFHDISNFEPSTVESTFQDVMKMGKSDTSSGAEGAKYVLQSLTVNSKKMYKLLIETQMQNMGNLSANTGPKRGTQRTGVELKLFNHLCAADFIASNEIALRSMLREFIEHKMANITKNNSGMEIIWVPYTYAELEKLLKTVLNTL

B1: Orc4 (subunit of the purified ORC) (natural protein, S. cerevisiae, UniProt P54791 1-529, looked up)
chain: MTISEARLSPQVNLLPIKRHSNEEVEETAAILKKRTIDNEKCKDSDPGFGSLQRRLLQQLYGTLPTDEKIIFTYLQDCQQEIDRIIKQSIIQKESHSVILVGPRQSYKTYLLDYELSLLQQSYKEQFITIRLNGFIHSEQTAINGIATQLEQQLQKIHGSEEKIDDTSLETISSGSLTEVFEKILLLLDSTTKTRNEDSGEVDRESITKITVVFIFDEIDTFAGPVRQTLLYNLFDMVEHSRVPVCIFGCTTKLNILEYLEKRVKSRFSQRVIYMPQIQNLDDMVDAVRNLLTVRSEISPWVSQWNETLEKELSDPRSNLNRHIRMNFETFRSLPTLKNSIIPLVATSKNFGSLCTAIKSCSFLDIYNKNQLSNNLTGRLQSLSDLELAILISAARVALRAKDGSFNFNLAYAEYEKMIKAINSRIPTVAPTTNVGTGQSTFSIDNTIKLWLKKDVKNVWENLVQLDFFTEKSAVGLRDNATAAFYASNYQFQGTMIPFDLRSYQMQIILQELRRIIPKSNMYYSWTQL

How the values were obtained:
Experiment in all cases: cryo-EM structure
[1] = biological target: T1, Orc1 (subunit of the purified ORC)
[2] = biological target: B1
[3] = biological target: T2, Orc2 (subunit of the purified ORC)

Row | binding result [1] | binding result [2] | binding result [3] | Binder
1 | binds |  |  | B1
2 |  | binds | binds | Orc5 (subunit of the purified ORC) (natural protein, S. cerevisiae, UniProt P50874 1-479, looked up) MNVTTPEVAFREYQTNCLASYISADPDITPSNLILQGYSGTGKTYTLKKYFNANPNLHAVWLEPVELVSWKPLLQAIARTVQYKLKTLYPNIPTTDYDPLQVEEPFLLVKTLHNIFVQYESLQEKTCLFLILDGFDSLQDLDAALFNKYIKLNELLPKDSKINIKFIYTMLETSFLQRYSTHCIPTVMFPRYNVDEVSTILVMSRCGELMEDSCLRKRIIEEQITDCTDDQFQNVAANFIHLIVQAFHSYTGNDIFALNDLIDFKWPKYVSRITKENIFEPLALYKSAIKLFLSTDDNLSENGQGESAITTNRDDLENSQTYDLSIISKYLLIASYICSYLEPRYDASIFSRKTRIIQGRAAYGRRKKKEVNPRYLQPSLFAIERLLAIFQAIFPIQGKAESGSLSALREESLMKANIEVFQNLSELHTLKLIATTMNKNIDYLSPKVRWKVNVPWEIIKEISESVHFNISDYFSDIHE
3 |  |  | binds | Orc3 (subunit of the purified ORC) (natural protein, S. cerevisiae, UniProt P54790 1-616, looked up) MSDLNQSKKMNVSEFADAQRSHYTVYPSLPQSNKNDKHIPFVKLLSGKESEVNVEKRWELYHQLHSHFHDQVDHIIDNIEADLKAEISDLLYSETTQKRRCFNTIFLLGSDSTTKIELKDESSRYNVLIELTPKESPNVRMMLRRSMYKLYSAADAEEHPTIKYEDINDEDGDFTEQNNDVSYDLSLVENFKRLFGKDLAMVFNFKDVDSINFNTLDNFIILLKSAFKYDHVKISLIFNINTNLSNIEKNLRQSTIRLLKRNYHKLDVSSNKGFKYGNQIFQSFLDTVDGKLNLSDRFVEFILSKMANNTNHNLQLLTKMLDYSLMSYFFQNAFSVFIDPVNVDFLNDDYLKILSRCPTFMFFVEGLIKQHAPADEILSLLTNKNRGLEEFFVEFLVRENPINGHAKFVARFLEEELNITNFNLIELYHNLLIGKLDSYLDRWSACKEYKDRLHFEPIDTIFQELFTLDNRSGLLTQSIFPSYKSNIEDNLLSWEQVLPSLDKENYDTLSGDLDKIMAPVLGQLFKLYREANMTINIYDFYIAFRETLPKEEILNFIRKDPSNTKLLELAETPDAFDKVALILFMQAIFAFENMGLIKFQSTKSYDLVEKCVWRGI
4 |  |  | binds | Orc6 (subunit of the purified ORC) (natural protein, S. cerevisiae, UniProt P38826 1-435, looked up) MSMQQVQHCVAEVLRLDPQEKPDWSSGYLKKLTNATSILYNTSLNKVMLKQDEEVARCHICAYIASQKMNEKHMPDLCYYIDSIPLEPKKAKHLMNLFRQSLSNSSPMKQFAWTPSPKKNKRSPVKNGGRFTSSDPKELRNQLFGTPTKVRKSQNNDSFVIPELPPMQTNESPSITRRKLAFEEDEDEDEEEPGNDGLSLKSHSNKSITGTRNVDSDEYENHESDPTSEEEPLGVQESRSGRTKQNKAVGKPQSELKTAKALRKRGRIPNSLLVKKYCKMTTEEIIRLCNDFELPREVAYKIVDEYNINASRLVCPWQLVCGLVLNCTFIVFNERRRKDPRIDHFIVSKMCSLMLTSKVDDVIECVKLVKELIIGEKWFRDLQIRYDDFDGIRYDEIIFRKLGSMLQTTNILVTDDQYNIWKKRIEMDLALTEPL
5 | binds |  |  | S. cerevisiae Cdc6 (natural protein, UniProt P09119 1-513, looked up) MSAIPITPTKRIRRNLFDDAPATPPRPLKRKKLQFTDVTPESSPEKLQFGSQSIFLRTKALLQKSSELVNLNSSDGALPARTAEYEQVMNFLAKAISEHRSDSLYITGPPGTGKTAQLDMIIRQKFQSLPLSLSTPRSKDVLRHTNPNLQNLSWFELPDGRLESVAVTSINCISLGEPSSIFQKIFDSFQDLNGPTLQIKNMQHLQKFLEPYHKKTTFVVVLDEMDRLLHANTSETQSVRTILELFLLAKLPTVSFVLIGMANSLDMKDRFLSRLNLDRGLLPQTIVFQPYTAEQMYEIVIQKMSSLPTIIFQPMAIKFAAKKCAGNTGDLRKLFDVLRGSIEIYELEKRFLLSPTRGSLNSAQVPLTPTTSPVKKSYPEPQGKIGLNYIAKVFSKFVNNNSTRTRIAKLNIQQKLILCTIIQSLKLNSDATIDESFDHYIKAITKTDTLAPLQRNEFLEICTILETCGLVSIKKTKCKGKTKRFVDKIDVDLDMREFYDEMTKISILKPFLH
